Measurements published in the supplement of paper PMC10567573.

B1: ZNF511 (parent)
chain: EPLPVERDPAAGAAPFRFVARPVR

Variants of: B1
Assay: protein stability index of a GFP-peptide fusion (GPS, HEK-293T) (PSI 1-6); higher = more stable
Conditions: c terminus: a fixed tail appended
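Also: lentivirally expressed fusions sorted by FACS into six bins by GFP to DsRed ratio, PSI derived from sequencing read proportions per bin multiplied by bin number.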

| Variant | protein stability index |
| --- | --- |
| EPLPVERMPAAGAAPFRFVARPVR [D8M] | 2.46 |
| EPLPVERPPAAGAAPFRFVARPVR [D8P] | 2.4 |
| EPLPVERGPAAGAAPFRFVARPVR [D8G] | 1.91 |
| EPLPVERCPAAGAAPFRFVARPVR [D8C] | 2.37 |
| EPLPVERHPAAGAAPFRFVARPVR [D8H] | 2.25 |
| EPLPVERVPAAGAAPFRFVARPVR [D8V] | 2.4 |
| EPLPVERAPAAGAAPFRFVARPVR [D8A] | 2.26 |
| EPLPVERNPAAGAAPFRFVARPVR [D8N] | 3.17 |
| EPLPVEREPAAGAAPFRFVARPVR [D8E] | 2.13 |
| EPLPVERLPAAGAAPFRFVARPVR [D8L] | 2.22 |
| EPLPVERSPAAGAAPFRFVARPVR [D8S] | 2.36 |
| EPLPVERWPAAGAAPFRFVARPVR [D8W] | 1.91 |
| EPLPVERQPAAGAAPFRFVARPVR [D8Q] | 2.12 |
| EPLPVERTPAAGAAPFRFVARPVR [D8T] | 2.99 |
| EPLPVERYPAAGAAPFRFVARPVR [D8Y] | 2.63 |
| EPLPVERFPAAGAAPFRFVARPVR [D8F] | 2.57 |
| EPLPVERIPAAGAAPFRFVARPVR [D8I] | 2.91 |
| EPLPVERRPAAGAAPFRFVARPVR [D8R] | 2.21 |
| EMLPVERDPAAGAAPFRFVARPVR [P2M] | 2.3 |
| ESLPVERDPAAGAAPFRFVARPVR [P2S] | 2.84 |
| ETLPVERDPAAGAAPFRFVARPVR [P2T] | 2.1 |
| EALPVERDPAAGAAPFRFVARPVR [P2A] | 2.66 |
| EILPVERDPAAGAAPFRFVARPVR [P2I] | 2.12 |
| EKLPVERDPAAGAAPFRFVARPVR [P2K] | 2.06 |

| Variant | protein stability index |
| --- | --- |
| EQLPVERDPAAGAAPFRFVARPVR [P2Q] | 1.94 |
| ELLPVERDPAAGAAPFRFVARPVR [P2L] | 2.37 |
| EELPVERDPAAGAAPFRFVARPVR [P2E] | 2.23 |
| ERLPVERDPAAGAAPFRFVARPVR [P2R] | 2.36 |
| EYLPVERDPAAGAAPFRFVARPVR [P2Y] | 2.45 |
| EWLPVERDPAAGAAPFRFVARPVR [P2W] | 1.8 |
| EHLPVERDPAAGAAPFRFVARPVR [P2H] | 2.12 |
| EFLPVERDPAAGAAPFRFVARPVR [P2F] | 1.72 |
| EGLPVERDPAAGAAPFRFVARPVR [P2G] | 2.75 |
| EDLPVERDPAAGAAPFRFVARPVR [P2D] | 2.55 |
| EVLPVERDPAAGAAPFRFVARPVR [P2V] | 2.03 |
| ENLPVERDPAAGAAPFRFVARPVR [P2N] | 1.99 |
| ECLPVERDPAAGAAPFRFVARPVR [P2C] | 2.08 |
| EPNPVERDPAAGAAPFRFVARPVR [L3N] | 2.76 |
| EPKPVERDPAAGAAPFRFVARPVR [L3K] | 2.4 |
| EPCPVERDPAAGAAPFRFVARPVR [L3C] | 2.16 |
| EPVPVERDPAAGAAPFRFVARPVR [L3V] | 2.23 |
| EPSPVERDPAAGAAPFRFVARPVR [L3S] | 3.09 |
| EPHPVERDPAAGAAPFRFVARPVR [L3H] | 2.56 |
| EPTPVERDPAAGAAPFRFVARPVR [L3T] | 2.3 |
| EPEPVERDPAAGAAPFRFVARPVR [L3E] | 2.97 |
| EPWPVERDPAAGAAPFRFVARPVR [L3W] | 2.64 |
| EPRPVERDPAAGAAPFRFVARPVR [L3R] | 3.45 |
| EPFPVERDPAAGAAPFRFVARPVR [L3F] | 2.01 |

| Variant | protein stability index |
| --- | --- |
| EPIPVERDPAAGAAPFRFVARPVR [L3I] | 2.45 |
| EPMPVERDPAAGAAPFRFVARPVR [L3M] | 2.28 |
| EPGPVERDPAAGAAPFRFVARPVR [L3G] | 2.23 |
| EPYPVERDPAAGAAPFRFVARPVR [L3Y] | 2.26 |
| EPQPVERDPAAGAAPFRFVARPVR [L3Q] | 2.64 |
| EPAPVERDPAAGAAPFRFVARPVR [L3A] | 2.46 |
| EPDPVERDPAAGAAPFRFVARPVR [L3D] | 2.1 |
| EPLPHERDPAAGAAPFRFVARPVR [V5H] | 1.96 |
| EPLPCERDPAAGAAPFRFVARPVR [V5C] | 2.39 |
| EPLPIERDPAAGAAPFRFVARPVR [V5I] | 2.46 |
| EPLPWERDPAAGAAPFRFVARPVR [V5W] | 2.64 |
| EPLPRERDPAAGAAPFRFVARPVR [V5R] | 2.85 |
| EPLPYERDPAAGAAPFRFVARPVR [V5Y] | 2.1 |
| EPLPKERDPAAGAAPFRFVARPVR [V5K] | 1.77 |
| EPLPDERDPAAGAAPFRFVARPVR [V5D] | 2.54 |
| EPLPPERDPAAGAAPFRFVARPVR [V5P] | 2 |
| EPLPTERDPAAGAAPFRFVARPVR [V5T] | 1.83 |
| EPLPLERDPAAGAAPFRFVARPVR [V5L] | 2.23 |
| EPLPAERDPAAGAAPFRFVARPVR [V5A] | 2.18 |
| EPLPMERDPAAGAAPFRFVARPVR [V5M] | 2.71 |
| EPLPNERDPAAGAAPFRFVARPVR [V5N] | 2.82 |
| EPLPQERDPAAGAAPFRFVARPVR [V5Q] | 2.37 |
| EPLPEERDPAAGAAPFRFVARPVR [V5E] | 2.17 |
| EPLPSERDPAAGAAPFRFVARPVR [V5S] | 2.56 |

| Variant | protein stability index |
| --- | --- |
| EPLPFERDPAAGAAPFRFVARPVR [V5F] | 2.12 |
| EPLPVARDPAAGAAPFRFVARPVR [E6A] | 2.92 |
| EPLPVHRDPAAGAAPFRFVARPVR [E6H] | 2.44 |
| EPLPVMRDPAAGAAPFRFVARPVR [E6M] | 2.52 |
| EPLPVLRDPAAGAAPFRFVARPVR [E6L] | 2.98 |
| EPLPVQRDPAAGAAPFRFVARPVR [E6Q] | 2.52 |
| EPLPVRRDPAAGAAPFRFVARPVR [E6R] | 3.13 |
| EPLPVSRDPAAGAAPFRFVARPVR [E6S] | 1.96 |
| EPLPVKRDPAAGAAPFRFVARPVR [E6K] | 1.99 |
| EPLPVFRDPAAGAAPFRFVARPVR [E6F] | 3.14 |
| EPLPVCRDPAAGAAPFRFVARPVR [E6C] | 3.25 |
| EPLPVTRDPAAGAAPFRFVARPVR [E6T] | 2.6 |
| EPLPVVRDPAAGAAPFRFVARPVR [E6V] | 3.22 |
| EPLPVNRDPAAGAAPFRFVARPVR [E6N] | 2.5 |
| EPLPVGRDPAAGAAPFRFVARPVR [E6G] | 2.08 |
| EPLPVDRDPAAGAAPFRFVARPVR [E6D] | 1.68 |
| EPLPVWRDPAAGAAPFRFVARPVR [E6W] | 1.56 |
| EPLPVIRDPAAGAAPFRFVARPVR [E6I] | 2.34 |
| EPLPVYRDPAAGAAPFRFVARPVR [E6Y] | 2.03 |
| EPLPVPRDPAAGAAPFRFVARPVR [E6P] | 3 |
| EPLDVERDPAAGAAPFRFVARPVR [P4D] | 2.9 |
| EPLEVERDPAAGAAPFRFVARPVR [P4E] | 2.43 |
